These results are taken from US20150344580A1.

The target of assay [1] is human CCR7-CHO cells (UniProt P32248). As to the kind of experiment: FACS binding to CCR7-CHO cells. (In general: A flow cytometer gives signals particle by particle.)
In assay [2] the target is human chemokine receptor CCR7 (UniProt P32248). As to the kind of experiment: flow cytometry, human CCR7 cells (summary table).
Assay [3] shares this target. As to the kind of experiment: cell-based or functional assay.
The target in assay [4] is mouse CCR7 (mouse) (UniProt P47774). As to the kind of experiment: flow cytometry, mouse CCR7 cells (summary table).
In assay [5] the target is CCR7 (JVM-13) (UniProt P32248). As to the kind of experiment: cell binding; JVM-13 cells.
The target of assay [6] is CCR7 (CCL-AAT) (UniProt P32248). As to the kind of experiment: cell binding; CLL-AAT cells.
Chain of CCR7 (CCL-AAT) (P32248 25-378): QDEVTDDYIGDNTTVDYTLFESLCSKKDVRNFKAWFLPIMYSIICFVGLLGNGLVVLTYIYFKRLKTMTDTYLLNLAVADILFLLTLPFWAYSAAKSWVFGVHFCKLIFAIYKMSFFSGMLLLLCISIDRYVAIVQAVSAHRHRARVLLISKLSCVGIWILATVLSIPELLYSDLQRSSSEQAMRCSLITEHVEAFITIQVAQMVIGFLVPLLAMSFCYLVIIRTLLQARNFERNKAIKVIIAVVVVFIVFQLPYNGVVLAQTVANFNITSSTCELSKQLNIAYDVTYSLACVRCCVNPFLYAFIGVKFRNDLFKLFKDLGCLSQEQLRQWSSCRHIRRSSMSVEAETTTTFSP

Chain of human chemokine receptor CCR7 (P32248 25-378 limits assumed): as the sequence (P32248 25-378) above
Chain of human CCR7-CHO cells (P32248 25-378): as above
Chain of mouse CCR7 (mouse) (P47774 25-378): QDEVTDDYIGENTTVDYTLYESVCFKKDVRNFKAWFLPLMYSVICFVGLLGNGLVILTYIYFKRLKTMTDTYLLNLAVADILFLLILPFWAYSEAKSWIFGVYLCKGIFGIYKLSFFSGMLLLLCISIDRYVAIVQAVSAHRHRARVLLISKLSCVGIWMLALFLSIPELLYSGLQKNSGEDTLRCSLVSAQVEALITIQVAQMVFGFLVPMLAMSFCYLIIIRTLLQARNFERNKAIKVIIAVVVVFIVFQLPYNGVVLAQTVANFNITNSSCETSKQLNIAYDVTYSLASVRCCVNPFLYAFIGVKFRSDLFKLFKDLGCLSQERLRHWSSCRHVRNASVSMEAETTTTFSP
Chain of CCR7 (JVM-13) (P32248 25-378): as the sequence (P32248 25-378) above

The substance IgG 150503 R&D Systems registered a concentration for a half-maximal effect (EC50) in assay [1] of 5.9 nM.
As for “IgG 3D12 (eBioscience), anti-human CCR7 control (antibody)”, in assay [2], the half-maximal effective concentration (EC50) turned out to be 3.4 nM.
In assay [3], “Mouse monoclonal IgG2A anti-human CCR7, clone 150503 (R&D Systems MAB197) (antibody)” showed an IC50 of inhibition of Ca-flux induced by 15 nM CCL19, Chem-1 CCR7 human cells of 10 nM and an inhibition of chemotaxis of CLL-AAT cells toward 30 nM CCL19, 500 nM IgG of 60%. Further, in assay [2], the half-maximal effective concentration (EC50) turned out to be 6.9 nM.
Turning to “Rat IgG2A anti-mouse CCR7, clone 4B12 (R&D Systems MAB3477) (antibody)”, the EC50 in assay [4] is 73.5 nM.
Turning to MAB197, the dissociation constant (Kd) in assay [5] worked out at 20 nM; in assay [6], 27 nM.
In the case of IgG 3D12 eBioscience, the EC50 in assay [1] was 3.2 nM.

By EC50 is commonly meant the concentration that produces a half-maximal response. High values mean lower potency in that assay, low ones higher potency in that assay. What is called Kd is the free concentration of one partner at which half of the binding sites on the other are occupied at equilibrium, for simple one-to-one binding. Low readings indicate tighter binding, high ones weaker binding.
